Substrate: O=P(O)(O)OC[C@H]1OC(O)(CO)[C@@H](O)[C@@H]1O
Experiment: Kinetics, E4PDH based colorimetric assay for FPK activity (F6P)
Format: biochemical, Bifidobacterium adolescentis
Conditions: other: F6P
Source text: Mutagenesis techniques were used to generate engineered phosphoketolases based on one of two template phosphoketolases (the fructose-6-phosphate phosphoketolase from Bifidobacterium adolescentis (strain ATCC 15703 DSM 20083 NCTC 11814 E194a) (“H2”; UniProtKB Accession No. A1A185_BIFAA; SEQ ID NOs: 1 and 3) orthe xylulose-5-phosphate/fructose-6-phosphate phosphoketolase from Collinsella aerofaciens (“D3”; UniProt KB Accession No. A0A174LGR4_9ACTN; SEQ ID NOs: 2 and 4)). Engineered phosphoketolase were generated using rational protein engineering. Structural homology models were constructed for H2 and D3. The substrate docking with Xu5P and F6P were also performed. In total, 2000 variants were designed. There are 1031 constructs designed based on H2, and 969 based on D3. 1999 constructs were received from DNA synthesis. The variants were then tested for XPK and/or FPK activity in in vitro primary and secondary screens as described below.
Further biochemical characterization of selected variants was conducted and the FPK activity of these variants were assessed. 12 hits were selected from the secondary screening results of the phosphoketolase library screen for in vitro biochemical characterization. All 12 of the hits selected are variants based on SEQ ID NO: 1. The kinetics parameters measured during biochemical characterization are summarized below in Table 5. The FPK kinetics assay was based on the E4PDH based Colorimetric Assay described herein for the 12 hits and the two controls (SEQ ID NO: 1 and SEQ ID NO: 2).
The product of FPK is coupled to NADH production via a one-step enzymatic reaction of its product with E4PDH. NADH production overtime was measured by absorbance at 340 nm. The reactions are listed below.
5 μL of half diluted cell lysate was added into 45 μL of reaction buffer. The reaction buffer contained an approximate amount of E4PDH enzyme, 1 mM NADH and 5 mM F6P as substrate for primary screening. 2 mM F6P was used for secondary screening. The reaction was recorded for a 10-min kinetics reading at 340 nm at room temperature.

| Protein | Km [mM] | kcat [s⁻¹] | kcat/Km [M⁻¹ s⁻¹] |
| --- | --- | --- | --- |
| Bifidobacterium adolescentis fructose-6-phosphate phosphoketolase (H2, SEQ ID NO: 1) variant H239R (Bifidobacterium adolescentis ATCC 15703; H238R) (protein) MMTSPVIGTPWKKLNAPVSEEAIEGVDKYWRAANYLSIGQIYLRSNPLMKEPFTREDVKHRLVGHWGTTPGLNFLIGHINRLIADHQQNTVIIMGPGHGGPAGTAQSYLDGTYTEYFPNITKDEAGLQKFFRQFSYPGGIPSHYAPETPGSIHEGGELGYALSHAYGAVMNNPSLFVPAIVGDGEAETGPLATGWQSNKLINPRTDGIVLPILHLNGYKIANPTILSRISDEELHEFFRGMGYEPYEFVAGFDNEDHLSIHRRFAELFETVFDEICDIKAAAQTDDMTRPFYPMIIFRTPKGWTCPKFIDGKKTEGSWRSHQVPLASARDTEAHFEVLKNWLESYKPEELFDENGAVKPEVTAFMPTGELRIGENPNANGGRIREELKLPKLEDYEVKEVAEYGHGWGQLEATRRLGVYTRDIIKNNPDSFRIFGPDETASNRLQAAYDVTNKQWDAGYLSAQVDEHMAVTGQVTEQLSEHQMEGFLEGYLLTGRHGIWSSYESFVHVIDSMLNQHAKWLEATVREIPWRKPISSMNLLVSSHVWRQDHNGFSHQDPGVTSVLLNKCFNNDHVIGIYFPVDSNMLLAVAEKCYKSTNKINAIIAGKQPAATWLTLDEARAELEKGAAEWKWASNVKSNDEAQIVLAATGDVPTQEIMAAADKLDAMGIKFKVVNVVDLVKLQSAKENNEALSDEEFAELFTEDKPVLFAYHSYARDVRGLIYDRPNHDNFNVHGYEEQGSTTTPYDMVRVNNIDRYELQAEALRMIDADKYADKINELEAFRQEAFQFAVDNGYDHPDYTDWVYSGVNTNKQGAISATAATAGDNE | 2.432 | 57.9 | 23800 |
| Bifidobacterium adolescentis fructose-6-phosphate phosphoketolase (H2, SEQ ID NO: 1) variant Y804W (Bifidobacterium adolescentis ATCC 15703; Y803W) (protein) MMTSPVIGTPWKKLNAPVSEEAIEGVDKYWRAANYLSIGQIYLRSNPLMKEPFTREDVKHRLVGHWGTTPGLNFLIGHINRLIADHQQNTVIIMGPGHGGPAGTAQSYLDGTYTEYFPNITKDEAGLQKFFRQFSYPGGIPSHYAPETPGSIHEGGELGYALSHAYGAVMNNPSLFVPAIVGDGEAETGPLATGWQSNKLINPRTDGIVLPILHLNGYKIANPTILSRISDEELHEFFHGMGYEPYEFVAGFDNEDHLSIHRRFAELFETVFDEICDIKAAAQTDDMTRPFYPMIIFRTPKGWTCPKFIDGKKTEGSWRSHQVPLASARDTEAHFEVLKNWLESYKPEELFDENGAVKPEVTAFMPTGELRIGENPNANGGRIREELKLPKLEDYEVKEVAEYGHGWGQLEATRRLGVYTRDIIKNNPDSFRIFGPDETASNRLQAAYDVTNKQWDAGYLSAQVDEHMAVTGQVTEQLSEHQMEGFLEGYLLTGRHGIWSSYESFVHVIDSMLNQHAKWLEATVREIPWRKPISSMNLLVSSHVWRQDHNGFSHQDPGVTSVLLNKCFNNDHVIGIYFPVDSNMLLAVAEKCYKSTNKINAIIAGKQPAATWLTLDEARAELEKGAAEWKWASNVKSNDEAQIVLAATGDVPTQEIMAAADKLDAMGIKFKVVNVVDLVKLQSAKENNEALSDEEFAELFTEDKPVLFAYHSYARDVRGLIYDRPNHDNFNVHGYEEQGSTTTPYDMVRVNNIDRYELQAEALRMIDADKYADKINELEAFRQEAFQFAVDNGYDHPDYTDWVWSGVNTNKQGAISATAATAGDNE | 2.86 | 30.8 | 10800 |
| Bifidobacterium adolescentis fructose-6-phosphate phosphoketolase (H2, SEQ ID NO: 1) variant C567S (Bifidobacterium adolescentis ATCC 15703; C566S) (protein) MMTSPVIGTPWKKLNAPVSEEAIEGVDKYWRAANYLSIGQIYLRSNPLMKEPFTREDVKHRLVGHWGTTPGLNFLIGHINRLIADHQQNTVIIMGPGHGGPAGTAQSYLDGTYTEYFPNITKDEAGLQKFFRQFSYPGGIPSHYAPETPGSIHEGGELGYALSHAYGAVMNNPSLFVPAIVGDGEAETGPLATGWQSNKLINPRTDGIVLPILHLNGYKIANPTILSRISDEELHEFFHGMGYEPYEFVAGFDNEDHLSIHRRFAELFETVFDEICDIKAAAQTDDMTRPFYPMIIFRTPKGWTCPKFIDGKKTEGSWRSHQVPLASARDTEAHFEVLKNWLESYKPEELFDENGAVKPEVTAFMPTGELRIGENPNANGGRIREELKLPKLEDYEVKEVAEYGHGWGQLEATRRLGVYTRDIIKNNPDSFRIFGPDETASNRLQAAYDVTNKQWDAGYLSAQVDEHMAVTGQVTEQLSEHQMEGFLEGYLLTGRHGIWSSYESFVHVIDSMLNQHAKWLEATVREIPWRKPISSMNLLVSSHVWRQDHNGFSHQDPGVTSVLLNKSFNNDHVIGIYFPVDSNMLLAVAEKCYKSTNKINAIIAGKQPAATWLTLDEARAELEKGAAEWKWASNVKSNDEAQIVLAATGDVPTQEIMAAADKLDAMGIKFKVVNVVDLVKLQSAKENNEALSDEEFAELFTEDKPVLFAYHSYARDVRGLIYDRPNHDNFNVHGYEEQGSTTTPYDMVRVNNIDRYELQAEALRMIDADKYADKINELEAFRQEAFQFAVDNGYDHPDYTDWVYSGVNTNKQGAISATAATAGDNE | 3.046 | 26.4 | 8660 |
| Bifidobacterium adolescentis fructose-6-phosphate phosphoketolase (H2, SEQ ID NO: 1) variant M483C (Bifidobacterium adolescentis ATCC 15703; M482C) (protein) MMTSPVIGTPWKKLNAPVSEEAIEGVDKYWRAANYLSIGQIYLRSNPLMKEPFTREDVKHRLVGHWGTTPGLNFLIGHINRLIADHQQNTVIIMGPGHGGPAGTAQSYLDGTYTEYFPNITKDEAGLQKFFRQFSYPGGIPSHYAPETPGSIHEGGELGYALSHAYGAVMNNPSLFVPAIVGDGEAETGPLATGWQSNKLINPRTDGIVLPILHLNGYKIANPTILSRISDEELHEFFHGMGYEPYEFVAGFDNEDHLSIHRRFAELFETVFDEICDIKAAAQTDDMTRPFYPMIIFRTPKGWTCPKFIDGKKTEGSWRSHQVPLASARDTEAHFEVLKNWLESYKPEELFDENGAVKPEVTAFMPTGELRIGENPNANGGRIREELKLPKLEDYEVKEVAEYGHGWGQLEATRRLGVYTRDIIKNNPDSFRIFGPDETASNRLQAAYDVTNKQWDAGYLSAQVDEHMAVTGQVTEQLSEHQCEGFLEGYLLTGRHGIWSSYESFVHVIDSMLNQHAKWLEATVREIPWRKPISSMNLLVSSHVWRQDHNGFSHQDPGVTSVLLNKCFNNDHVIGIYFPVDSNMLLAVAEKCYKSTNKINAIIAGKQPAATWLTLDEARAELEKGAAEWKWASNVKSNDEAQIVLAATGDVPTQEIMAAADKLDAMGIKFKVVNVVDLVKLQSAKENNEALSDEEFAELFTEDKPVLFAYHSYARDVRGLIYDRPNHDNFNVHGYEEQGSTTTPYDMVRVNNIDRYELQAEALRMIDADKYADKINELEAFRQEAFQFAVDNGYDHPDYTDWVYSGVNTNKQGAISATAATAGDNE | 2.299 | 34 | 14800 |
| Bifidobacterium adolescentis fructose-6-phosphate phosphoketolase (H2, SEQ ID NO: 1) variant Q759L (Bifidobacterium adolescentis ATCC 15703; Q758L) (protein) MMTSPVIGTPWKKLNAPVSEEAIEGVDKYWRAANYLSIGQIYLRSNPLMKEPFTREDVKHRLVGHWGTTPGLNFLIGHINRLIADHQQNTVIIMGPGHGGPAGTAQSYLDGTYTEYFPNITKDEAGLQKFFRQFSYPGGIPSHYAPETPGSIHEGGELGYALSHAYGAVMNNPSLFVPAIVGDGEAETGPLATGWQSNKLINPRTDGIVLPILHLNGYKIANPTILSRISDEELHEFFHGMGYEPYEFVAGFDNEDHLSIHRRFAELFETVFDEICDIKAAAQTDDMTRPFYPMIIFRTPKGWTCPKFIDGKKTEGSWRSHQVPLASARDTEAHFEVLKNWLESYKPEELFDENGAVKPEVTAFMPTGELRIGENPNANGGRIREELKLPKLEDYEVKEVAEYGHGWGQLEATRRLGVYTRDIIKNNPDSFRIFGPDETASNRLQAAYDVTNKQWDAGYLSAQVDEHMAVTGQVTEQLSEHQMEGFLEGYLLTGRHGIWSSYESFVHVIDSMLNQHAKWLEATVREIPWRKPISSMNLLVSSHVWRQDHNGFSHQDPGVTSVLLNKCFNNDHVIGIYFPVDSNMLLAVAEKCYKSTNKINAIIAGKQPAATWLTLDEARAELEKGAAEWKWASNVKSNDEAQIVLAATGDVPTQEIMAAADKLDAMGIKFKVVNVVDLVKLQSAKENNEALSDEEFAELFTEDKPVLFAYHSYARDVRGLIYDRPNHDNFNVHGYEEQGSTTTPYDMVRVNNIDRYELLAEALRMIDADKYADKINELEAFRQEAFQFAVDNGYDHPDYTDWVYSGVNTNKQGAISATAATAGDNE | 3.596 | 35.6 | 9890 |
| Bifidobacterium adolescentis fructose-6-phosphate phosphoketolase (H2, SEQ ID NO: 1) variant H257P (Bifidobacterium adolescentis ATCC 15703; H256P) (protein) MMTSPVIGTPWKKLNAPVSEEAIEGVDKYWRAANYLSIGQIYLRSNPLMKEPFTREDVKHRLVGHWGTTPGLNFLIGHINRLIADHQQNTVIIMGPGHGGPAGTAQSYLDGTYTEYFPNITKDEAGLQKFFRQFSYPGGIPSHYAPETPGSIHEGGELGYALSHAYGAVMNNPSLFVPAIVGDGEAETGPLATGWQSNKLINPRTDGIVLPILHLNGYKIANPTILSRISDEELHEFFHGMGYEPYEFVAGFDNEDPLSIHRRFAELFETVFDEICDIKAAAQTDDMTRPFYPMIIFRTPKGWTCPKFIDGKKTEGSWRSHQVPLASARDTEAHFEVLKNWLESYKPEELFDENGAVKPEVTAFMPTGELRIGENPNANGGRIREELKLPKLEDYEVKEVAEYGHGWGQLEATRRLGVYTRDIIKNNPDSFRIFGPDETASNRLQAAYDVTNKQWDAGYLSAQVDEHMAVTGQVTEQLSEHQMEGFLEGYLLTGRHGIWSSYESFVHVIDSMLNQHAKWLEATVREIPWRKPISSMNLLVSSHVWRQDHNGFSHQDPGVTSVLLNKCFNNDHVIGIYFPVDSNMLLAVAEKCYKSTNKINAIIAGKQPAATWLTLDEARAELEKGAAEWKWASNVKSNDEAQIVLAATGDVPTQEIMAAADKLDAMGIKFKVVNVVDLVKLQSAKENNEALSDEEFAELFTEDKPVLFAYHSYARDVRGLIYDRPNHDNFNVHGYEEQGSTTTPYDMVRVNNIDRYELQAEALRMIDADKYADKINELEAFRQEAFQFAVDNGYDHPDYTDWVYSGVNTNKQGAISATAATAGDNE | 2.422 | 25 | 10300 |

Source: patent US20240218346A1, “PHOSPHOKETOLASE VARIANTS AND METHODS OF USE” (Genomatica, Inc., priority 2021, published 2024)
